# Assay results reported in patent US20200255836, “NUCLEIC ACID APTAMER FOR INHIBITING ACTIVITY OF GENOME-EDITING ENZYME” (NATIONAL INSTITUTE OF ADVANCED INDUSTRIAL SCIENCE AND …, published 2020).
# Legend:
# Cas9 (His-Cas9) [1] = target: T1, Cas9 (His-Cas9) (Streptococcus pyogenes, UniProt Q99ZW2 Q99ZW2:1-1368); assay: EMSA; Cas9 without guide; 250 mM NaCl, 1 mM MgCl2, tRNA; details: tags: His tag, expressed in E. coli; hairpin, 7-base loop
# Protocol: (§1) The interaction between Cas9 protein and each nucleic acid aptamer having inhibitory activity was analyzed by gel shift assay. The detailed experimental conditions are as follows.
# (§2) Amounts of 2 pmol of Cas9 protein and 20 pmol of each nucleic acid aptamer (s21, s21-2, s21-mm2, tetra, and St2-1SA (aptamer against streptavidin)) were incubated at normal temperature for 30 minutes in a binding buffer (20 mM Tris/HCl pH 8.0, 250 mM NaCl, 1 mM MgCl₂, 2.5% glycerol, 0.05% Tween-20, and 0.05 mg/ml tRNA). Then, the obtained product was electrophoresed on 8% acrylamide gel, and the gel was stained with SYBR Gold (Thermo Fisher Scientific Inc.), followed by analysis with Bio-Rad ChemiDoc XRS image analysis system (Bio-Rad Laboratories, Inc.). The sequence of St2-1SA is as described below (Table 13).
# Cas9 (His-Cas9) [2] = target: T1, Cas9 (His-Cas9); assay: EMSA; no complex band; 250 mM NaCl, 1 mM MgCl2, tRNA; details: tags: His tag, expressed in E. coli; hairpin
# Protocol: as §1, §2
# Cas9 (His-Cas9) [3] = target: T1, Cas9 (His-Cas9); assay: SPR; 5'-biotin s21 immobilized; Cas9 without guide; 20 mM Tris pH 8.0, 150 mM NaCl, 1 mM MgCl2; details: tags: His tag, expressed in E. coli; hairpin (stem-loop)
# Protocol: In order to calculate the dissociation constant (Kd) between Cas9 protein and each nucleic acid aptamer, surface plasmon resonance analysis was conducted. The detailed experimental approach was as follows.
# 5′-Biotinylated s21 was prepared and was immobilized on a streptavidin sensor chip (GE Healthcare Japan Corp.). Then, different concentrations (2.5 nM, 5 nM, 10 nM, and 20 nM) of Cas9 protein were loaded in a running buffer (20 mM Tris/HCl pH 8.0, 150 mM NaCl, 1 mM MgCl₂, and 0.005% Tween-20) to obtain sensorgrams. Kd was calculated with Biacore evaluation software package (GE Healthcare Japan Corp., Ver 2.0). Tetra was used as a control to conduct a similar test.
# Cas9 (His-Cas9) [4] = target: T1, Cas9 (His-Cas9); assay: EMSA; negative control; no complex band; details: tags: His tag, expressed in E. coli
# Protocol: as §1, §2
# T1 sequence (Q99ZW2 whole entry, one chain of several): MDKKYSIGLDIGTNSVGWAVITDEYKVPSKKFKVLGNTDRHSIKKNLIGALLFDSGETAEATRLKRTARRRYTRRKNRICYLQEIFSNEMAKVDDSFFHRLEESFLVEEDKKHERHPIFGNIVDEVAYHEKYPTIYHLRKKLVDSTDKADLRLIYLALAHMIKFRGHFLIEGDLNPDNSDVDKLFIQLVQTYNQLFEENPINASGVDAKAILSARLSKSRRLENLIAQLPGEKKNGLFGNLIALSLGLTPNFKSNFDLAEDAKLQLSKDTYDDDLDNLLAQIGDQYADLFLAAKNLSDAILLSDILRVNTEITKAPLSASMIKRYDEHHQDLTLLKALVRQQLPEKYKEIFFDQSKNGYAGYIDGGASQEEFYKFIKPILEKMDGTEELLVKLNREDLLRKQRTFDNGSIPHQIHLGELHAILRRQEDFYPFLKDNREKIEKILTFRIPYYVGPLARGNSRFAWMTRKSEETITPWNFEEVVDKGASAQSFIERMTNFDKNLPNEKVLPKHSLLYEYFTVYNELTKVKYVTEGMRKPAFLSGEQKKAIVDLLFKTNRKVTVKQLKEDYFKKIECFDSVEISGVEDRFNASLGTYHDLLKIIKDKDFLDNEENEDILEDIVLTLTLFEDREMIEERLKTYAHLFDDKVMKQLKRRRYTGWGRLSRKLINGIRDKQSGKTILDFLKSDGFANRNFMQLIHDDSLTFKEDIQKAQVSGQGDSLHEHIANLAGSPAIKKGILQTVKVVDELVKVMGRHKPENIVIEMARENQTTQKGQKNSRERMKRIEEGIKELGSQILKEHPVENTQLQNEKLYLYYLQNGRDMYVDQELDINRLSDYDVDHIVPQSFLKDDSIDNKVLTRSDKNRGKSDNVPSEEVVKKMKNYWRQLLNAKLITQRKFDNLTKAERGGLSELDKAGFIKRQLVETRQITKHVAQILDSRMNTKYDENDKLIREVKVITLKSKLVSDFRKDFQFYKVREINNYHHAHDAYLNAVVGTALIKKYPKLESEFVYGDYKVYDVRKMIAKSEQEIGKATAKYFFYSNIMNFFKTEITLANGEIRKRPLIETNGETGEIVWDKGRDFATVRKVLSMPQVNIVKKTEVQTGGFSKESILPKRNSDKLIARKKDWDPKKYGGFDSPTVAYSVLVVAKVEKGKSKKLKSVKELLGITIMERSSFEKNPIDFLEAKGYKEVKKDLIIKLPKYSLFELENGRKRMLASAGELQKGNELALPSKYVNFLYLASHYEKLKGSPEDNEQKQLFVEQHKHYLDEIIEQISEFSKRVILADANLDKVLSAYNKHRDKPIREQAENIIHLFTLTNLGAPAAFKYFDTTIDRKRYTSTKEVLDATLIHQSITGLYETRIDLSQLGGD
binder,measurement,setting,value
GAGGCTCTCACATCGCGCCTTTCGGTGTGAGAGCCTC (ssDNA) [s21-2],binding result,Cas9 (His-Cas9) [1],binds
GAGGCTCTCACAGCGCGCCTTTCGTTGTGAGAGCCTC (ssDNA) [s21-2mm2],binding result,Cas9 (His-Cas9) [2],no binding
GAGGCTCTCACATCGCGCCTTTCCCCAGCTTTCGGTGTGAGAGCCTC (ssDNA) [s21],Kd,Cas9 (His-Cas9) [3],0.57 nM
ATTGACCGCTGTGTGACGCAACACTCAAT (ssDNA) [St2-1SA (streptavidin aptamer)],binding result,Cas9 (His-Cas9) [4],no binding
